Reference: the supplement of paper PMC12764529

Experiment: folding stability dG unfold (combined trypsin and chymotrypsin); higher = more stable
Description: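 Folding stability of de novo designed mini-proteins (<80 aa, no Cys; designed by TrROS, TrMRF, ProteinMPNN and the joint model) was measured by cDNA display proteolysis with trypsin and chymotrypsin. Each protease was used at 11 concentrations in a threefold dilution series plus a no-protease condition. K50 was inferred by Bayesian fitting of sequencing counts, and dG unfold was derived against a sequence-predicted unfolded-state K50 (Tsuboyama et al. method). Sequences shown include variable-length N-terminal GS-type padding (SAGGSAGG...) inside a display construct carrying a PA tag. Rows were kept only if the AF2 dimer inter-PAE was >15, to exclude likely homo-oligomers.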

Sequence | folding stability dG unfold
SAGGSAGGPKPEIDIEPYPEEGQMYVKIRLPGNGRPITIPVEGPMTPNDPEKAIEEAKDALEKFSAGGSAGG [r6_331_TrROS] | < -1 kcal/mol
SAGGSAGGRIRVPDGREIPPGQSKEEAKDQVKDWFKERNPQNGNKKVKIEAEKWDGMPWIRVKPSAGGSAGG [r6_558_TrROS] | < -1 kcal/mol
SAGGSAGGSAADLAKLEKVEVEEVPTDPNAEYRVTAELPTPGEPVEFTRRRLPDGSWEYSGSAGGSAGGSAG [r3_234_JUSTAS] | < -1 kcal/mol
SAGGSAGGSAEEILELFPDLELLEVDPVEPRALVRRSDDSWLRVNLATGEAEEVGPGEAERESAGGSAGGSA [r18_381_TrMRF] | < -1 kcal/mol
SAGGSAGGSAGAAEFELSGTVRIGDVPVKVTPRLYVPEDGGYRAEPRVELYFREDTPGYRSAGGSAGGSAGG [r11_121_TrMRF] | < -1 kcal/mol
SAGGSAGGSAGAPRVRSVTPVGEETFFLPEDRVVRVTLWAAEGEGPPRLFRRVEVLPLDESAGGSAGGSAGG [r11_129_TrMRF] | < -1 kcal/mol
SAGGSAGGSAGEKPIYYRIKHRNPANGQKVKHEIPFPPNDADEIKEQMEKQPGIDEIEPFSAGGSAGGSAGG [r17_438_TrROS] | < -1 kcal/mol
SAGGSAGGSAGGAKELADRMRDAGYEPEADPDSGKIEVRHPNPNGKRMKREINIPPEDISAGGSAGGSAGGS [r10_1173_TrROS] | < -1 kcal/mol
SAGGSAGGSAGGDADKALPVGFELVEAETVELGDNPVLLVRLKGKNGEQLLLVPPDAPISAGGSAGGSAGGS [r10_968_TrMRF] | < -1 kcal/mol
SAGGSAGGSAGGDKKAIEELVKKLPPDTKLAPVKLPDGKEKLIFVERREDGSRKALVLDSAGGSAGGSAGGS [r10_1017_TrMRF] | < -1 kcal/mol
SAGGSAGGSAGGDNIKIDIDFDPGYGVFTSKIYPPNGGPISDLSIKIPPMSPEDLDKFKSAGGSAGGSAGGS [r10_717_TrROS] | < -1 kcal/mol
SAGGSAGGSAGGDPNIEKTYKIKVAKGDKNGKIIKVIEKEIKVKTPEEAEKFAKELAKSSAGGSAGGSAGGS [r10_57_TrMRF] | < -1 kcal/mol
SAGGSAGGSAGGEEERMWMFSVRVPDKPVMFPFDDLEKLAEEKGVPVKIEWARMPADDLKSAGGSAGGSAGG [r7_185_TrROS] | < -1 kcal/mol
SAGGSAGGSAGGFPNMPIKEIKIDNPERVPGKPRVRIEFTFPGGPRKFMMPADDLQDMFSAGGSAGGSAGGS [r10_771_TrROS] | < -1 kcal/mol
SAGGSAGGSAGGGMKKITISDPVKPGAVITFPLTGETITVPANSSVTITLTEPLPGTYDLSAGGSAGGSAGG [r7_234_JUSTAS] | < -1 kcal/mol
SAGGSAGGSAGGGSPAEQLREMAKQIPPVEIRFPGPGKERTIPDPDNFQEKGWKITEIEFSAGGSAGGSAGG [r7_504_TrROS] | < -1 kcal/mol
SAGGSAGGSAGGGSPNVVVEKKLTVNLPKDVKLDFPPEYEVTVTKGKNTYKITEKIIVNKSAGGSAGGSAGG [r7_584_JUSTAS] | < -1 kcal/mol
SAGGSAGGSAGGIEVDPDYAMITFPIPPNETIKFKLPNEKLKIEVPPGKPISIYIPAKDSAGGSAGGSAGGS [r10_464_TrROS] | < -1 kcal/mol
SAGGSAGGSAGGIRLSPEFRELLKDAPPSPGQKREINFPNGYQITYTVKGNKIDDIEWTPSAGGSAGGSAGG [r7_611_TrROS] | < -1 kcal/mol
SAGGSAGGSAGGKIKLAAANPKVAKELAKILEKELEEKGYKLKPNLKIEVLPAKPDPKLASAGGSAGGSAGG [r7_965_TrMRF] | < -1 kcal/mol
SAGGSAGGSAGGKKKKIKLFIDHYFDGPPNINPEKIEKELKEKGIDVEVVLNALPKENKKSAGGSAGGSAGG [r7_355_TrMRF] | < -1 kcal/mol
SAGGSAGGSAGGKSPLEKLRELAKKNPNVTVYVEKTGKEVKVPSIEELLEKGYKIVKIEKSAGGSAGGSAGG [r7_504_TrROS_Hall] | < -1 kcal/mol

Sequence | folding stability dG unfold
SAGGSAGGSAGGKVIHIPAGDAKTFIKEALEKDKDQPIVIHMYNPDGKEYSTMEVKIKPSAGGSAGGSAGGS [r10_741_TrROS] | < -1 kcal/mol
SAGGSAGGSAGGMALEPKTVTSTLTVFFPDTGKTYPLTETVFIPTKFNLPLPPFPPETLSAGGSAGGSAGGS [r10_1026_JUSTAS] | < -1 kcal/mol
SAGGSAGGSAGGMEVREVVEETPETLVVRTVRFYPDGSVEVLEEERIPLPPPELTPRNLLSAGGSAGGSAGG [r11_843_JUSTAS] | < -1 kcal/mol
SAGGSAGGSAGGMIHIDPTPNGWKASVMNPNNGKPREIPFPPDNIPKLIPKGIDYVHIHPSAGGSAGGSAGG [r7_266_TrROS] | < -1 kcal/mol
SAGGSAGGSAGGMIYPPDEVLEKTTKVEVELPNETGKTITKTIVTKTYAESGKSTIETAGSAGGSAGGSAGG [r17_266_JUSTAS] | < -1 kcal/mol
SAGGSAGGSAGGMKITVKTSYDPSRPVFYEEVYPPGGEPISRKVIEIPPAEPKLIEELLSAGGSAGGSAGGS [r10_717_JUSTAS] | < -1 kcal/mol
SAGGSAGGSAGGMKPYRIGNGAWLYVNPDDSVRIYNPGNGQKRTIPIGKPQPIRLPKNAISAGGSAGGSAGG [r7_299_TrROS] | < -1 kcal/mol
SAGGSAGGSAGGMKVETRTITDPGGIEKVKEDYPGYTVEKTEKLPDGSTKVTLKYPILKSAGGSAGGSAGGS [r10_764_JUSTAS] | < -1 kcal/mol
SAGGSAGGSAGGMLPIPKIEVKPGDEEEAKKTKEKLKKELEEKLGKKAKNLKVDFNPSLSAGGSAGGSAGGS [r10_1216_JUSTAS] | < -1 kcal/mol
SAGGSAGGSAGGMTAVVTEPRLENGKEYLVRTVREFPSAEPRPGAVLEEEVVPLDVPLESAGGSAGGSAGGS [r10_730_JUSTAS] | < -1 kcal/mol
SAGGSAGGSAGGMTETIPVSPSELDEVIEEAKKKGLKKIVLKDPNSSKKTVITKDKVEDESAGGSAGGSAGG [r7_564_JUSTAS] | < -1 kcal/mol
SAGGSAGGSAGGMTTTVIEVDVEPGEVSEEEIKKRLAPLTGKPIEITTDPSGIPVITVEESAGGSAGGSAGG [r7_330_JUSTAS] | < -1 kcal/mol
SAGGSAGGSAGGMVLELEGLGEEEIKALVREIPEDEPVTFVIKSKNNKTSVIPSEEILESAGGSAGGSAGGS [r10_732_JUSTAS] | < -1 kcal/mol
SAGGSAGGSAGGNPGQEVTYQIKIPIRDKNGEPDWKIDIPVTMDTPQDADRFAKEIAKRSAGGSAGGSAGGS [r10_57_TrROS] | < -1 kcal/mol
SAGGSAGGSAGGPEPIPVKISMWNPNGKPMGTFEFPIETPEDLDEFAREDGMPFRVEPESAGGSAGGSAGGS [r10_958_TrROS] | < -1 kcal/mol
SAGGSAGGSAGGPETRVVYEPLPDGTSKIVEVEAAEDYVTVPVPFPNGGEAVFTVKPGELSAGGSAGGSAGG [r7_829_TrMRF] | < -1 kcal/mol
SAGGSAGGSAGGPEWKEVPFTLRMPDGEPMDAKVYIDPEGPLEIENDDKWHTFPADQLKSAGGSAGGSAGGS [r10_649_TrROS] | < -1 kcal/mol
SAGGSAGGSAGGPTVKVKKVELAPETGYAVVHFEVELEGEPKVVEGELVLPLPPPLDAPSAGGSAGGSAGGS [r10_541_TrMRF] | < -1 kcal/mol
SAGGSAGGSAGGSGLKELREEAAKGKKFIVRTTVPLKEYEFDLKDLDKFEDHDIIVEPRSAGGSAGGSAGGS [r4_157_TrMRF] | < -1 kcal/mol
SAGGSAGGSAGGSLALVRFPGDDRLFSVPVPEDLEAELVLPTPDGRPVGVRLFRVRDPRESAGGSAGGSAGG [r7_19_TrMRF] | < -1 kcal/mol
SAGGSAGGSAGGSLNISVSSEPLPGDLLVEKGEFPSPKTLTTLVEPGTGVVTTTTEAASSAGGSAGGSAGGS [r10_237_JUSTAS] | < -1 kcal/mol
SAGGSAGGSAGGSMITTEEFTDKEEAVEKAKKTPGVEKVEVKTTPSDKYVVIIYKPPLKSAGGSAGGSAGGS [r4_1_JUSTAS] | < -1 kcal/mol
